B1: Age-related maculopathy susceptibility protein 2 (Homo sapiens), P0C7Q2 (parent)
chain: MLRLYPGPMVTEAEGKGGPEMASLSSSVVPVSFISTLRESVLDPGVGGEGASDKQRSKLSLSHSMIPAAKIHTELCLPAFFSPAGTQRRFQQPQHHLTLSIIHTAAR
B2: Age-related maculopathy susceptibility protein 2 (Homo sapiens), P0C7Q2 (parent)
chain: B1 chain
partner: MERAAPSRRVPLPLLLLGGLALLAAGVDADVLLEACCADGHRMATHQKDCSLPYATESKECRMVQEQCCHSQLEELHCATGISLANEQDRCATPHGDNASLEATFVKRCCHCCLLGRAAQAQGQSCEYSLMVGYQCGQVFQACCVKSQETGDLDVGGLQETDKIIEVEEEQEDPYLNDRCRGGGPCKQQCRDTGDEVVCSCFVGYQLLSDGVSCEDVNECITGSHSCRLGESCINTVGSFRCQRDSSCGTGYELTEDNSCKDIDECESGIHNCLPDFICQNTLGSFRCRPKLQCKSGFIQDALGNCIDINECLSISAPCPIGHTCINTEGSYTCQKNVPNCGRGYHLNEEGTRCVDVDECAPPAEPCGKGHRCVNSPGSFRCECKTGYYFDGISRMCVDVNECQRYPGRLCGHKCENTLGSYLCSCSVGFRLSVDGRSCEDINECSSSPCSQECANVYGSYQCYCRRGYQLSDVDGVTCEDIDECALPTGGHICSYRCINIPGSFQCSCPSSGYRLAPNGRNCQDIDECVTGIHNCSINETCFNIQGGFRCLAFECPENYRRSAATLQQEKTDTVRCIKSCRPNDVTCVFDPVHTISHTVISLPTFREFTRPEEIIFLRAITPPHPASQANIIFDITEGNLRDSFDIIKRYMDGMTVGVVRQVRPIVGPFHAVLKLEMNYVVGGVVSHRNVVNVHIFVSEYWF

Assays:
[1] = variants of: B1; details: with psg11_human PSG11, Q9UQ72
Sequence of psg11_human PSG11, Q9UQ72 (Q9UQ72 whole entry): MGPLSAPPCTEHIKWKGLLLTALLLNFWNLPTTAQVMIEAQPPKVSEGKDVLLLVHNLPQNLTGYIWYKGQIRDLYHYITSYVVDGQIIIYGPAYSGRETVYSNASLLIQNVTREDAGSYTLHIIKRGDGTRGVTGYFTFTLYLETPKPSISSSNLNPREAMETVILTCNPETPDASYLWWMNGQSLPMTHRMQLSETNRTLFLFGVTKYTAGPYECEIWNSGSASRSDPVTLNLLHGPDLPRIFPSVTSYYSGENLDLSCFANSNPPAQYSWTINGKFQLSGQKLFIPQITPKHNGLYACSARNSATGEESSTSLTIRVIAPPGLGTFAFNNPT

[2] = variants of: B1; details: with co1a1_human COL1A1, P02452
Sequence of co1a1_human COL1A1, P02452 (P02452 whole entry): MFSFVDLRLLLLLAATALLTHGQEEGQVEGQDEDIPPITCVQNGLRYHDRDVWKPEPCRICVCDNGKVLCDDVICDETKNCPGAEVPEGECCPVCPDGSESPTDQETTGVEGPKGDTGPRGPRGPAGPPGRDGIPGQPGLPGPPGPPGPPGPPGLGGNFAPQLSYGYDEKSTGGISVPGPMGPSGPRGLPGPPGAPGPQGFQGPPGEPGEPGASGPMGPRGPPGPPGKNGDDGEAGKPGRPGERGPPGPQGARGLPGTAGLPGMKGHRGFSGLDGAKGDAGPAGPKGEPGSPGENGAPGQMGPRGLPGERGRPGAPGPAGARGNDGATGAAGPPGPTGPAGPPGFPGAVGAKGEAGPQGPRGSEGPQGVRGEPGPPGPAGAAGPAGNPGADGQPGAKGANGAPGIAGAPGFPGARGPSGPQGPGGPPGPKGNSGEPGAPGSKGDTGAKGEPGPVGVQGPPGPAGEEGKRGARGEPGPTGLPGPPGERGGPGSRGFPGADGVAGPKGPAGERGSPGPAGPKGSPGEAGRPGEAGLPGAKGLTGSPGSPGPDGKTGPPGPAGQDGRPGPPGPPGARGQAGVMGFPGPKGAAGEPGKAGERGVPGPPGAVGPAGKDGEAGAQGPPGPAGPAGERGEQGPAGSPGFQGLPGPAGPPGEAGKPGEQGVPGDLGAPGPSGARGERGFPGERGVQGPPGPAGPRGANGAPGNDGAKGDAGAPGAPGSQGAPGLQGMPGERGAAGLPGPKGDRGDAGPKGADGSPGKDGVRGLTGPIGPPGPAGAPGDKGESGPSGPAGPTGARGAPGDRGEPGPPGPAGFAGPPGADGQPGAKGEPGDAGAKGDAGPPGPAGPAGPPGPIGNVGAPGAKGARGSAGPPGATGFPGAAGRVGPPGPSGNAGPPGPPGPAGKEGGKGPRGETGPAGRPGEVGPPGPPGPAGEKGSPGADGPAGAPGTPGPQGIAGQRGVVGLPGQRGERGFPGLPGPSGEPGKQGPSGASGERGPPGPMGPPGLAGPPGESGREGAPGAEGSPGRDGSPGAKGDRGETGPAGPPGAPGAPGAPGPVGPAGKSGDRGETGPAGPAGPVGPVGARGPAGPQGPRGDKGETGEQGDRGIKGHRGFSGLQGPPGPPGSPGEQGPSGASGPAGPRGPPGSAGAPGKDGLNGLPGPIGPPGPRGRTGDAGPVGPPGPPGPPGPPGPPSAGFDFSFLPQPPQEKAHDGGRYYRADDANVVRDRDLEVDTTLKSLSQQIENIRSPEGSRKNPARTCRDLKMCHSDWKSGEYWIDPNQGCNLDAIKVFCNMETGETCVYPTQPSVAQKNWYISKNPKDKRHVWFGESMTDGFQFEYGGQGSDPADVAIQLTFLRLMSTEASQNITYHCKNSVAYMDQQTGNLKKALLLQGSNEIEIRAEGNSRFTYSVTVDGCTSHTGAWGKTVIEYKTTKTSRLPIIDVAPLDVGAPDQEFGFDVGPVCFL

finc_human FN1, P02751 = variants of: B1; details: with finc_human FN1, P02751
[3] = variants of: B1; details: with co4a2_human COL4A2, P08572
Sequence of co4a2_human COL4A2, P08572 (P08572 whole entry): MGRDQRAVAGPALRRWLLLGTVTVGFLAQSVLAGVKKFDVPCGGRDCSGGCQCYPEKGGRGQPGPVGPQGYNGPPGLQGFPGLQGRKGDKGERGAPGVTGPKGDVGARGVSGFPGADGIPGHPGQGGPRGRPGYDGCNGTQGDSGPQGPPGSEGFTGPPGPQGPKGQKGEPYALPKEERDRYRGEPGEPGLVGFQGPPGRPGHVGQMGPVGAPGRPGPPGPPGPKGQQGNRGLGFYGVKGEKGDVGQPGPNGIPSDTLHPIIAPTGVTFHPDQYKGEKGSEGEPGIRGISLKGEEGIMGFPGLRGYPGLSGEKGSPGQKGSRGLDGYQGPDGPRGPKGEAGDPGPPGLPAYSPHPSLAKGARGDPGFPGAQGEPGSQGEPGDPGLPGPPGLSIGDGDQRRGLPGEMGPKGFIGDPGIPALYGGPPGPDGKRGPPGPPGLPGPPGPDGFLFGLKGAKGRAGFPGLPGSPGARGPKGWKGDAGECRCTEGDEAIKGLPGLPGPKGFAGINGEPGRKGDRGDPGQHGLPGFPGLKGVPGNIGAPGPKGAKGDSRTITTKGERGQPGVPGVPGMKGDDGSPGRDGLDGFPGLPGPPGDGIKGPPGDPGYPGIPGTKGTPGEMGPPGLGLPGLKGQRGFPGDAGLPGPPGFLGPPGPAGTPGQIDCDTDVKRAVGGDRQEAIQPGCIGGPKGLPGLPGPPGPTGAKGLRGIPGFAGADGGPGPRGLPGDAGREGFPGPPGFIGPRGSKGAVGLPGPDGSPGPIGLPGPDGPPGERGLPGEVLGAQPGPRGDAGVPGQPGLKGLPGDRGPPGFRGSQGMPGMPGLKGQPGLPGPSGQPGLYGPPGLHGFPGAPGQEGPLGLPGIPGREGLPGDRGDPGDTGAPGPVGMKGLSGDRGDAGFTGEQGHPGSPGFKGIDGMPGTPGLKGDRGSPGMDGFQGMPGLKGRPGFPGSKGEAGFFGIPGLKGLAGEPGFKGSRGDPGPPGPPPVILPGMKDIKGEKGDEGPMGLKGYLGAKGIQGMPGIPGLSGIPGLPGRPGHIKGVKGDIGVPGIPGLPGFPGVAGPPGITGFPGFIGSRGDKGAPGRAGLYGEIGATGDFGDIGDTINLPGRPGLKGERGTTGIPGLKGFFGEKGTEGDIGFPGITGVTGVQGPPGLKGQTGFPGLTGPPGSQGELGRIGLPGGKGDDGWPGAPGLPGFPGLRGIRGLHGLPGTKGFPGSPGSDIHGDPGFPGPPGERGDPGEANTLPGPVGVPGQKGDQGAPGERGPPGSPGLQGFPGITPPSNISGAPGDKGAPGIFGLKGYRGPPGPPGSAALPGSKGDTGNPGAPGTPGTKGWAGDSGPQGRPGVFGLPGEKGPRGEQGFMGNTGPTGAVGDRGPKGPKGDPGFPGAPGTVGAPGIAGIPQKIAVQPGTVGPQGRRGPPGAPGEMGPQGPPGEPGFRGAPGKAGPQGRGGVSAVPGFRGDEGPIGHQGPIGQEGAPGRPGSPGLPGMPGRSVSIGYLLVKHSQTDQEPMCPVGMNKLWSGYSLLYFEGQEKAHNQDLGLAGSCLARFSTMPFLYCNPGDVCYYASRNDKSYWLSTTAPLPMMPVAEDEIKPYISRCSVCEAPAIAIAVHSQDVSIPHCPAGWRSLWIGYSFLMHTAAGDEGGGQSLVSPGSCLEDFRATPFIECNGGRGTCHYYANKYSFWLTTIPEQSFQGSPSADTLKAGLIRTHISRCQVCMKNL

[4] = variants of: B1; details: with emil2_human EMILIN2, Q9BXX0
Sequence of emil2_human EMILIN2, Q9BXX0 (Q9BXX0 whole entry): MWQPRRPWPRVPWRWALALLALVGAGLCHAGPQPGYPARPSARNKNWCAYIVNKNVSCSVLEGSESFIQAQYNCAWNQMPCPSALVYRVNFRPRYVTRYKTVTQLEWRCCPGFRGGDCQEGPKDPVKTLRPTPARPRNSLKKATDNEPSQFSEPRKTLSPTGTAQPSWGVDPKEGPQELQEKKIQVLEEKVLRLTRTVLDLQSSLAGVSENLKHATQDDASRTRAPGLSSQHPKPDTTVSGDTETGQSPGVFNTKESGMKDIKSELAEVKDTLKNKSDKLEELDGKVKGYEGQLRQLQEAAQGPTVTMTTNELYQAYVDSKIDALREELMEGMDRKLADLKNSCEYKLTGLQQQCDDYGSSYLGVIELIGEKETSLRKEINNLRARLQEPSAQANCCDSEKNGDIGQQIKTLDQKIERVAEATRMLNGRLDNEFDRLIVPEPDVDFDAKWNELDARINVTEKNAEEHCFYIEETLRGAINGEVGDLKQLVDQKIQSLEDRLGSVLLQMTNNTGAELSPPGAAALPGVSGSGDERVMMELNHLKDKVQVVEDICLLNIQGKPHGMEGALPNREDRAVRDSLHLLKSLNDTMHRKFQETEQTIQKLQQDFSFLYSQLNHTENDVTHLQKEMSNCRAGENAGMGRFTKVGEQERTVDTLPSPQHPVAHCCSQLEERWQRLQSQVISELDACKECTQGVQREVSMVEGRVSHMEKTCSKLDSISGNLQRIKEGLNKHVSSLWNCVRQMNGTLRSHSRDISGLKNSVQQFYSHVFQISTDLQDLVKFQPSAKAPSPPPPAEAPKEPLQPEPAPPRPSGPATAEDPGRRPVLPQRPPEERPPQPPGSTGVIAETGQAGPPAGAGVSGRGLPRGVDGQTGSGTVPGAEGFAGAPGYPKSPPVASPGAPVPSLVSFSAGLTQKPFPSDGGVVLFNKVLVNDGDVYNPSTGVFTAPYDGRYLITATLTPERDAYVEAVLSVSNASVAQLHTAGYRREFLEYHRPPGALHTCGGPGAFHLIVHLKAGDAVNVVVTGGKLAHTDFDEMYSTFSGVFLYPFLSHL

[5] = variants of: B1; details: with hmcn1_human HMCN1, Q96RW7
psg9_human PSG9, Q00887 = variants of: B1; details: with psg9_human PSG9, Q00887
Sequence of psg9_human PSG9, Q00887 (Q00887 whole entry): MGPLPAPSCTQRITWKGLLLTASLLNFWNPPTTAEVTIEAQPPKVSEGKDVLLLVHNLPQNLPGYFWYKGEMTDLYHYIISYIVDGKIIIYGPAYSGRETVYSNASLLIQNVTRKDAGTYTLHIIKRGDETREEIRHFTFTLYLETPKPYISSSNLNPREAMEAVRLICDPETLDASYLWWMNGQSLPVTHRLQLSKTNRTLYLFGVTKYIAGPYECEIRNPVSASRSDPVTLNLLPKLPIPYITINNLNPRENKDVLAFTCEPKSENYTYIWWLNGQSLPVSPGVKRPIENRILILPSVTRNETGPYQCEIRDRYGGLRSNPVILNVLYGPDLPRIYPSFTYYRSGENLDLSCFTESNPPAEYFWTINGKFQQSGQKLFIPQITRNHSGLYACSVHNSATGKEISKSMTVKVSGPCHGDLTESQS

[6] = variants of: B2; details: with fbln1_human FBLN1, P23142

Measured: effect of a mutation on the interaction

A69S
not listed: [6]
with no effect: all other assays above

A69S
with no effect: [6]

From IntAct's records for PubMed 19696174
